Measured values from patent US20230080224A1 (AGENCY FOR SCIENCE TECHNOLOGY AND RESEARCH, published 2023).

Columns and labels:
[1] = biological target: T1, human ALPPL2 (recombinant protein) (human, UniProt P10696 20-503); experiment: BLI; single concentration
T1 chain: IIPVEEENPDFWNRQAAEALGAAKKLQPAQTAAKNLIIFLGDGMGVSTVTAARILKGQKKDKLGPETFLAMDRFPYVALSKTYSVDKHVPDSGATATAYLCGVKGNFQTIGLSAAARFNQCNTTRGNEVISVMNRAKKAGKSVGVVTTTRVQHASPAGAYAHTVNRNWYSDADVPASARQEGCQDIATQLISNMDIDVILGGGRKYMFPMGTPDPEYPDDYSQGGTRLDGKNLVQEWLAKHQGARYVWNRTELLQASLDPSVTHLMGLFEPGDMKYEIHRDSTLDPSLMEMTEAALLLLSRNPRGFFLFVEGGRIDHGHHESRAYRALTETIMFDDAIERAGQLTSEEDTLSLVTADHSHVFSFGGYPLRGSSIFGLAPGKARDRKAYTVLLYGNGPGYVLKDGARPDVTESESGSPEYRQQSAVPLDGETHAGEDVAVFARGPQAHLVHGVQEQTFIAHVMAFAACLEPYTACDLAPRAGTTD

[2] = biological target: T2, ALPI (screening and SPR/ELISA protein) (UniProt P09923 20-503, limits assumed); experiment: screen of rabbit B-cell clones by ELISA and FACS
T2 sequence (looked up): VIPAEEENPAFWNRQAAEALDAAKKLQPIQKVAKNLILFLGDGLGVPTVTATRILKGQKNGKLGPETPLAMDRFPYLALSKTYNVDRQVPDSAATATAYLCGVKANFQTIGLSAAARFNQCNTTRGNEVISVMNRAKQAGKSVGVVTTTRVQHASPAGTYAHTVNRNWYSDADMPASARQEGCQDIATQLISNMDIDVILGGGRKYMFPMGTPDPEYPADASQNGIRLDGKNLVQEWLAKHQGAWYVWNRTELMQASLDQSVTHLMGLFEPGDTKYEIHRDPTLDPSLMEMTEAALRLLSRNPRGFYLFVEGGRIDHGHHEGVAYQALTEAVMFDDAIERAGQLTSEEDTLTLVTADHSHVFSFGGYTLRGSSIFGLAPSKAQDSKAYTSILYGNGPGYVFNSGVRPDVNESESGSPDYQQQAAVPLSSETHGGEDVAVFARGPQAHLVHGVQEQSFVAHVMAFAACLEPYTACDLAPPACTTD
Excerpt: (§1) Specific clones were screened and identified by ELISA and high throughput flow cytometry (FIG. 3). Rabbit kidney cells were transfected with either truncated (for ELISA screen) or full-length (for FACS screen) ALPI and ALPPL2.

[3] = biological target: T3, human ALPPL2 (recombinant protein) (human, UniProt P10696 20-503, limits assumed); experiment: screen of rabbit B-cell clones by ELISA and FACS
T3 construct: biotinylated where captured on streptavidin
Excerpt: as §1

[4] = biological target: human ALPP (recombinant protein) (human, UniProt P05187 23-506, limits assumed); experiment: SPR, Biacore T200, ligand captured by streptavidin on CM5 chip, antibody as analyte
Chain of human ALPP (recombinant protein) (P05187 23-506 limits assumed): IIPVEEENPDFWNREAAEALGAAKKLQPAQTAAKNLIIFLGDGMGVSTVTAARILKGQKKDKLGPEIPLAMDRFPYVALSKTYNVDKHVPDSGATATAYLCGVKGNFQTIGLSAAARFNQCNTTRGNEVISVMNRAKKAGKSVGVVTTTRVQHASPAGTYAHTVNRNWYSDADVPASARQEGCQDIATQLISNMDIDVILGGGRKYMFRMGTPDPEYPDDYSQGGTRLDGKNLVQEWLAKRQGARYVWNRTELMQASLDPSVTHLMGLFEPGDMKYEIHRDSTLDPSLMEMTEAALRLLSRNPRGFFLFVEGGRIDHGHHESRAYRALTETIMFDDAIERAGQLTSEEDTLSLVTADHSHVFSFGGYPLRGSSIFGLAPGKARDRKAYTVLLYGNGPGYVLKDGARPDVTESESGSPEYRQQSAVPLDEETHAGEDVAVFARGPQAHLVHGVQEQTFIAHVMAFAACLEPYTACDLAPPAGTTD
Method: (§2) Select clones (C4, C15, C131, C12, C18, C36 and C53) were humanized by grafting the CDRs to a human IgG1 framework. […] Surface plasmon resonance was studied using Biacore T200. Ligands (e.g. ALPPL2 or ALPP) were immobilized on biosensors CM5 chips captured with the streptavidin. Ligands-loaded sensors were then incubated with different concentrations of analyte (recombinant expressed humanized antibody clones) to measure affinity.

[5] = biological target: T3, human ALPPL2 (recombinant protein); experiment: as above
Method: as §2

B1: AB1C10 (antibody, V domains shown)
VH: QSLEESGGDLVKPGASLTLTCTASGFDFSSNGMCWVRQAPGKGLEWIACIYVDSSDNTNYASWVNGRFTISRTSSTTVTLQMTSLTAADTATYFCARGYGYVGSAMDLWGQGTLVTVSS
VL: DIVMTQTPASVEAAVGGTVTIKCQASQSINNELSWYQQKPGQRPKLLIYGASTLESGVPSRFSGSGSGTEFTLTISDLECADAATYYCQSAYYSSSSSYANTFGGGTEVVVK
notes: Rabbit antibody cloned from a single B cell
In the case of B1, the Kd [1] is reported as 0.15 nM, the binding result [2] is reported as “no binding” and the binding result [3] is reported as “binds”.

B2: AB1C25 (antibody, V domains shown)
VH: QSLEESGGDLVKPGASLTLTCTASGFDFSSNGMCWVRQAPGKGLEWIACIYVDSSDSTYYASWVNGRFTISRTSSTTVTLQMTSLTAADTATYFCARGYGYVGSAMDLWGQGTLVTVSS
VL: DIVMTQTPASVEAAVGGTVTIKCQASQSISNELSWYQQKPGQRPKLLIYGASTLESGVPSRFSGSGSGTEFTLTISDLECADAATYYCQSAYYSSSSSYANTFGGGTEVVAA
notes: as for B1
In the case of B2, the Kd [1] is reported as 1.4 nM, the binding result [2] is reported as “no binding” and the binding result [3] is reported as “binds”.

B3: AB1C31 (antibody, V domains shown)
VH: QSLEESGGDLVKPGASLTLTCTASGFDFSSNGMCWVRQAPGKGLEWIACIYVDSSDNTNYASWVNGRFTISRTSSTTVDLKMTSLTAADTATYFCARGYGYVGSAMDLWGQGTLVTVSS
VL: DIVMTQTPASVEAAVGGTVTIKCQASQSISNELSWYQQKPGQRPKLLIYGASTLESGVPSRFSGSGSGTEFTLTISDLECADAATYYCQSAYYSSSSSYANTFGGGTEVVVK
notes: as for B1
With B3 the Kd [1] was 0.4 nM, the binding result [2] was “no binding” and the binding result [3] was “binds”.

B4: AB1C12 (antibody, V domains shown)
VH: QSLEESGGDLVKPGASLTLTCTASGFSFSSSYWISWVRQAPGKGLEWIACIAIGSSGTTYYASWAKGRFTISKTSSTTVTLQMTSLTAADTATYFCARSGDGYTYVELWGPGTLVTVSS
VL: DVVMTQTPASVSEPVGGTVTIKCQASQSISSYLAWYQQKPGQPPKLLIYRASTLASGVPSRFKGSGSGTQFTLTISDLECADAATYYCQNYYDIDDSDNTFGGGTEVVVK
notes: as for B1
B4 was tested, and the Kd [1] was 0.8 nM, the binding result [2] was “no binding” and the binding result [3] was “binds”.

B5: AB1C19 (antibody, V domains shown)
VH: QSLEESGGDLVQPEGSLTLTCKASGFDFSTNIMCWVRQAPGKGLEWIACIYAGDGSTYYASWVNGRFTISKTSSTTVTLQMTSLTAADTATYFCARASTYWNYGYAGYGYYPGYFNLWGPGTLVTVSS
VL: DIVMTQTPASVEAAVGGTVTIKCQASQSIISALAWYQQKPGQPPKLLIYAASTLASGVPSRFKGSGSGTQFTLTISDLECADAATYYCQTYAYSTKSNYGSVFGGGTEVVVK
notes: as for B1
B5 was tested, and the Kd [1] was 1.69 nM, the binding result [2] was “no binding” and the binding result [3] was “binds”.

B6: AB2C102 (antibody, V domains shown)
VH: QQQLEESGGDLVQPGASLTLTCTASGFSFNSNYWMCWGRQAPGKGLEWIGCILFGNTDTYYANWAKGRFTISKTSSTTVTLQMTSLTAADTATYFCARSVSGVGSAWNLWGPGTLVTVSS
VL: IVMTQTPSSKSVPVGDTVTINCQASESVYNNNHLAWYQQKPGQSPKLLIYLASILDSGVPSRFKGSGSGTQFTLTISDVVCDDAATYYCAGYKGITIDGSAFGGGTELVVK
notes: as for B1
With B6 the Kd [1] was 0.5 nM, the binding result [2] was “no binding” and the binding result [3] was “binds”.

B7: AB2C127 (antibody, V domains shown)
VH: QSLEESGGDLVKPGASLTLTCTASGFSFNSYYMCWVRQAPGKGLEWIACISGGSSDNTYYASWAKGRFTTSKTSSTTVTLQMTSLTAADTATYFCARDIPRSGYFGCDLWGPGTLVTVSS
VL: VVMTQTPASVSEPVGGTVTIKCQASQNIYSNLAWYQQKPGQRPKLLIYGASNLESGVPSRFKGSGSGTEYTLTISNLECADAATYYCQSTVYNSNYANTFGGGTEVVVK
notes: as for B1
With B7 the Kd [1] was 1.7 nM, the binding result [2] was “no binding” and the binding result [3] was “binds”.

B8: AB2C133 (antibody, V domains shown)
VH: QSLEESGGDLVKPGASLTLTCTASGLDFSSSYWICWVRQAPGKGLEWIGCIKTATETTVYASWAKGRFTISKTSSTTVTLQMTSLTAADTATYLCAKTYADNGGYINLWGPGTLVTVSS
VL: LVMTQTPSSVSAAVGGTVTINCQASQNIYNNLAWYQQKPGQRPKLLIYGASNLESGVPSRFKGSGSGTEYTLTISDLECDDAATYYCQSADLTSSINVFGGGTEVVVK
notes: as for B1
For B8, the Kd [1] was 1 nM, the binding result [2] was “no binding” and the binding result [3] was “binds”.

B9: AB1C29 (antibody, V domains shown)
VH: QEHLEESGGGLVKPEGSLTLTCTASGFSFSSSYYMCWVRQAPGKGLEWIACIYPDDGNTYYASWAKGRFTISKTSSTTVTLQMTSLTAADTATYFCARALAYYAYVDGGHSYAINDFDLWGPGTLVTVSS
VL: QVLTQTPSSVSAAVGGTVTINCQSSQSVFSNDYFSWYQQKPGQPPKLLIYDASRLASGVPSRFKGSGSGTQFTLTISGVQCDDAATYYCQGTYYSSAWYNAFGGGTEVVVK
notes: as for B1
With B9 the Kd [1] was 0.2 nM, the binding result [2] was “no binding” and the binding result [3] was “binds”.

B10: AB2C129 (antibody, V domains shown)
VH: QSLEESGGDLVKPGASLTLTCTASGFSFSSSYWICWVRQAPGKGLEWIACIYAGSSGDTYYASWAKGRFTISKTSSTTVTLQTTSLTAADTATYFCARAEYIDGYADYTYTTLYYFDLWGPGTPVTVSS
VL: DVVMTQTPASVSEPVGGTVTINCQASESINSWLAWYQQKPGQPPKLLIYSASTLASGVPSRFKGSGSGIEFTLTISDLECADAATYFCQSYYSFSRFAFGGGTEVVVK
notes: as for B1
For B10, the Kd [1] was 0.001 nM, the binding result [2] was “no binding” and the binding result [3] was “binds”.

B11: AB2C124 (antibody, V domains shown)
VH: QEQLVESGGGLVQPEGSLTLTCTASGFSFSSSYFMCWVRQAPGKGLEWIACIYTGDGNNYYASWAKGRFTISKTSSTTVTLQMTSLTAADTATYFCSRGGSYYAYGYAGYDYYPDAFDYWGPGTLVTVSS
VL: DIVMTQTPASVEVAVGGTVTIKCQASQSISSYLSWYQQKPGQPPKLLIYRASTLASGVPSRFKGSGSGTQFTLTISDLECADAATYYCQSYYYSSSGSYGFGGGTEVVVK
notes: as for B1
For B11, the Kd [1] was 1.6 nM, the binding result [2] was “no binding” and the binding result [3] was “binds”.

B12: AB2C136 (antibody, V domains shown)
VH: QEQLEESGGDLVKPGASLTLTCTASGFSFNSNYYMCWVRQAPGKGLEWIACIYTGIVVPTYYASWAKGRFTISKTSSTTVTLQMTSLTAADTATYFCARDPYVGSSYIYNLWGPGTLVTVSS
VL: LVMTQTPSPVSAAVGSTVTISCQSSQSVYNNNNLAWYQQKPGQPPKLLIYSASSLASGVPSRFKGSGSGTQFTLTISGVECDDAATYYCAGYKTYSNNENAFGGGTEVVVK
notes: as for B1
For B12, the Kd [1] was 0.1 nM, the binding result [2] was “no binding” and the binding result [3] was “binds”.

B13: AB2C131 (antibody, V domains shown)
VH: QSLEESGGGLVQPEGSLTLTCTASGFSFSSSYYMCWVRQAPGKGLEWIACIYAGSTFSTYYASWAKGRFTISKTSSTTVTLQMTSLTAADTATYFCARSDSYYTYGYAGYAYAIFNLWGPGTLVTVSS
VL: LVMTQTPSSVSAAVGGTVTINCQASESIYSNLAWYQQKPGQPPKLLIYLASTLASGVPSRFKGSGSGTEFTLTISDLECADAATYYCQSAYYSSSADIAFGGGTEVVVK
notes: as for B1
In the case of B13, the Kd [1] is reported as 8 nM, the binding result [2] is reported as “no binding” and the binding result [3] is reported as “binds”.

B14: humanized C15 (antibody, human IgG1, V domains shown)
VH: EVQLVESGGGLVQPGGSLRLSCAASGFSFSSSYYMCWVRQAPGKGLEWIACIYTTYGGTWYASWAKGRFTISRDNSKNTLYLQMNSLRAEDTAVYYCARSSISDVTYFNLWGQGTLVTVSS
VL: DIQMTQSPSSLSASVGDRVTITCQASQSISNYLAWYQQKPGKVPKLLIYRASTLESGVPSRFSGSGSGTDFTLTISSLQPEDVATYYCQSYYDNNNYAFGQGTKVEIK
notes: CDRs grafted to a human IgG1 framework; recombinant; also called hC15
B14: binds [4]; binds [5].
